{"source": "patent US20220308056", "biological_target": "recombinant SARS-Cov-2 nucleocapsid protein (NP2), P0DTC9", "data": [{"protein": "recombinant MASP-2 (rMASP-2) of Example 23 (protein) TPLGPKWPEPVFGRLASPGFPGEYANDQERRWTLTAPPGYRLRLYFTHFDLELSHLCEYDFVKLSSGAKVLATLCGQESTDTERAPGKDTFYSLGSSLDITFRSDYSNEKPFTGFEAFYAAEDIDECQVAPGEAPTCDHHCHNHLGGFYCSCRAGYVLHRNKRTCSALCSGQVFTQRSGELSSPEYPRPYPKLSSCTYSISLEEGFSVILDFVESFDVETHPETLCPYDFLKIQTDREEHGPFCGKTLPHRIETKSNTVTITFVTDESGDHTGWKIHYTSTAQPCPYPMAPPNGHVSPVQAKYILKDSFSIFCETGYELLQGHLPLKSFTAVCQKDGSWDRPMPACSIVDCGPPDDLPSGRVEYITGPGVTTYKAVIQYSCEETFYTMKVNDGKYVCEADGFWTSSKGEKSLPVCEPVCGLSARTTGGRIYGGQKAKPGDFPWQVLILGGTTAAGALLYDNWVLTAAHAVYEQKHDASALDIRMGTLKRLSPHYTQAWSEAVFIHEGYTHDAGFDNDIALIKLNNKVVINSNITPICLPRKEAESFMRTDDIGTASGWGLTQRGFLARNLMYVDIPIVDHQKCTAAYEKPPYPRGSVTANMLCAGLESGGKDSCRGDSGGALVFLDSETERWFVGGIVSWGSMNCGEAGQYGVYTKVINYIPWIENIISDF", "values": [{"measurement": "C4 cleavage on NP2-coated wells (SDS-PAGE Western blot)", "result": "a new band corresponding to C4′α"}]}]}
